Measured values reported in PMC11724247.
pKd: −log10 of the molar value.

Experiments:
[1] = molecular target: recombinant human FcεRIα (human) (UniProt P12319); experiment: SPR
[2] = molecular target: recombinant cynomolgus FcεRIα (cynomolgus monkey (Macaca fascicularis)); experiment: SPR

| pKd [1] | pKd [2] | Substance |
| --- | --- | --- |
| 11.17 | 8.85 | recombinant cynomolgus IgE Fc (Cε1-4) (domain or fragment) |
| 11.08 | 9.00 | recombinant human IgE (antibody) |
